Target: T1, His6-PLCβ2 (phospholipase Cβ2) (UniProt Q00722 1-1185, CPM (thiol-reactive coumarin) on Cys side chains where printed as CPM-PLCβ2; Dabcyl where printed as PLCβ2 with DAB acceptor; unlabelled elsewhere)
T1 construct: phospholipase C β2; called the full length / whole enzyme; printed mass 133.7 kDa; One construct used CPM-labelled, Dabcyl-labelled or unlabelled; also called PLCß2; CPM-PLCβ2; source: Sf9 cells, baculovirus system, purified
Test: other fluorescence titration; activated Gαq and PLCß2, without γ-synuclein; which partner was labelled is not stated
Conditions: both partners purified

T1 sequence (Q00722 whole entry): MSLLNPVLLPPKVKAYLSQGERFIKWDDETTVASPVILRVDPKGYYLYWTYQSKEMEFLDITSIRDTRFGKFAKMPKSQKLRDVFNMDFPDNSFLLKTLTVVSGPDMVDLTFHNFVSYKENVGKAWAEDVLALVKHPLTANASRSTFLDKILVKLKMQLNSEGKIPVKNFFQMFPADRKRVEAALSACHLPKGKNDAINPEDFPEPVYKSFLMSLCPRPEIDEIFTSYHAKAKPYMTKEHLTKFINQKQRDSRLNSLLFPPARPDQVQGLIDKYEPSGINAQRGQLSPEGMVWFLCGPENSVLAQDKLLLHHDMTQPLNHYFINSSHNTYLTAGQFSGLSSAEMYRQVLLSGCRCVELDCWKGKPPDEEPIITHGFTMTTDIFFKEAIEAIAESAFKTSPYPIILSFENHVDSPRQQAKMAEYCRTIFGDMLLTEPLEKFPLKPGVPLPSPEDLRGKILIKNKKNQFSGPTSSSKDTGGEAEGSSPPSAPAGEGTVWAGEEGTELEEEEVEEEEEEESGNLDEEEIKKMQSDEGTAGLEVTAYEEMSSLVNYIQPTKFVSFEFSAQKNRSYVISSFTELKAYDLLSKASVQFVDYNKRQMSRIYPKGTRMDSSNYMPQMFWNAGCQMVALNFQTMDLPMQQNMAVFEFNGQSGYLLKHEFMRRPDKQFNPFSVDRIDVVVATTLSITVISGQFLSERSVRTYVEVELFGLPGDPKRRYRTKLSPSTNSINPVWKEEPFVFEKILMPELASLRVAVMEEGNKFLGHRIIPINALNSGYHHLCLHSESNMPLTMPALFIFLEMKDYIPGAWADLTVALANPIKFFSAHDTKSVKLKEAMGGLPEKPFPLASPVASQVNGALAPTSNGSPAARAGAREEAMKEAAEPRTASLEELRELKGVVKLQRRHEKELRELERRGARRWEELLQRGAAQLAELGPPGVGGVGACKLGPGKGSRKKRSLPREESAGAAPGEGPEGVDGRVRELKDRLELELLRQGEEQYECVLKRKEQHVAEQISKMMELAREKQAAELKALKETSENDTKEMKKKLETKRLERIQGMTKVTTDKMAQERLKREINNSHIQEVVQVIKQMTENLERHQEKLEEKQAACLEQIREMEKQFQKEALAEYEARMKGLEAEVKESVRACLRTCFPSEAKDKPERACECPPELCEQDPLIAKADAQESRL

B1: Gαq(GTPγS) (natural protein, UniProt P50148 1-359, looked up)
chain: MTLESIMACCLSEEAKEARRINDEIERQLRRDKRDARRELKLLLLGTGESGKSTFIKQMRIIHGSGYSDEDKRGFTKLVYQNIFTAMQAMIRAMDTLKIPYKYEHNKAHAQLVREVDVEKVSAFENPYVDAIKSLWNDPGIQECYDRRREYQLSDSTKYYLNDLDRVADPAYLPTQQDVLRVRVPTTGIIEYPFDLQSVIFRMVDVGGQRSERRKWIHCFENVTSIMFLVALSEYDQVLVESDNENRMEESKALFRTIITYPWFQNSSVILFLNKKDLLEEKIMYSHLVDYFPEYDGPQRDAQAAREFILKMFVDLNPDSDKIIYSHFTCATDTENIRFVFAAVKDTILQLNLKEYNLV
notes: source: Sf9 cells, co-expressed with Gβ1 and His6-Gγ2
Kd: 300 ± 200 pM

— article PMC3414502, “γ-Synuclein Interacts with Phospholipase Cβ2 to Modulate G Protein Activation” (PLoS ONE, 2012)
